Residue numbers refer to the chain shown, from its start.
Key:
K458A = target: T1, K458A (Homo sapiens, UniProt P78325); experiment: high-throughput flow cytometry, HEK293 cells with mutant ADAM8, high stringency; range in parentheses; dotted box
T1 construct: expressed on HEK293 cells; also called human ADAM8 point mutant K458A
T1 sequence (ADAM8, looked up): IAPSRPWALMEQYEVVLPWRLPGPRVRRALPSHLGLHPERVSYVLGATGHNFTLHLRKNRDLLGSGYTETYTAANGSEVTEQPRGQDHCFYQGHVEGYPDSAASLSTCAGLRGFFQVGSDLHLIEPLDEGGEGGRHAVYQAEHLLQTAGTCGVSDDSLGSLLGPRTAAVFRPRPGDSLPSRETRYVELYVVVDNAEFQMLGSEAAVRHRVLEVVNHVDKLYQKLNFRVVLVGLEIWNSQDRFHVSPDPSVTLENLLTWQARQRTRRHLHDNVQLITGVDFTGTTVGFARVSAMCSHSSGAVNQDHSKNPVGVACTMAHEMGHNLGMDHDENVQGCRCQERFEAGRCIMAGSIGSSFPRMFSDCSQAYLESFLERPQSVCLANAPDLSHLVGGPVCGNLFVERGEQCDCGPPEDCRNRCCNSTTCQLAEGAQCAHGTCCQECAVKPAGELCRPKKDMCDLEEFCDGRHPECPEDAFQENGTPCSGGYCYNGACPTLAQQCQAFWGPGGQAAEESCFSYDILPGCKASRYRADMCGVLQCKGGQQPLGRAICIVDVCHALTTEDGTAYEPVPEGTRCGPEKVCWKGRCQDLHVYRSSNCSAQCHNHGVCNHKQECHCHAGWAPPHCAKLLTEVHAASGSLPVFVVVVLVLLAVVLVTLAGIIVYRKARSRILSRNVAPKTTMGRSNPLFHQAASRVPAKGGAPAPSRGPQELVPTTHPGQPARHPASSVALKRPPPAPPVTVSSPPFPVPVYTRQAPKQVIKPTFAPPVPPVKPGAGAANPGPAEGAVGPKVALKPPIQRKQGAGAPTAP
Description: (§1) A variety of experimental parameters were optimized for high-throughput flow cytometry including blocking buffer, and primary and secondary antibody concentrations, to identify the optimal conditions for screening. Through these studies ADP2 and ADP13 were determined to be high affinity binding antibodies.
(§2) Thus, for these studies antigen-binding fragments (Fabs) of ADP2 and ADP13, which bind with lower affinity than the full antibody, were generated. In addition, higher binding stringency conditions were tested, such as increased pH, salinity, and temperature, and/or increased washing, to weaken binding sufficiently to allow identification of critical binding residues in flow cytometry. The final experimental flow cytometry conditions were: primary antibody incubation with ADP2 Fab (0.50 μg/ml), ADP13 Fab (5.00 μg/ml) and Control Ab (0.16 μg/ml) for 60 minutes in flow cytometry buffer containing 10% goat serum in PBS (Ca²⁺ and Mg²⁺ free). […] Samples were washed three times after primary antibody incubation and twice after secondary antibody incubation with PBS (Ca²⁺ and Mg′ free). Next, HEK293 cells expressing WT or mutated ADAM8 proteins or EV DNA were incubated with ADP2 or ADP13 Fabs or Control Ab at their optimal concentrations. Fab binding was detected using Alexa Fluor 488-conjugated secondary antibodies and mean cellular fluorescence determined using the Intellicyt iQue flow cytometry platform. […] This counter-screen strategy facilitates the exclusion of mutants that are locally misfolded or that have an expression defect. Binding of each test Fab to each mutant clone in the alanine scanning library was determined, in duplicate, by high-throughput flow cytometry.

E444A = target: T2, E444A (Homo sapiens, UniProt P78325); experiment: high-throughput flow cytometry, HEK293 cells with mutant ADAM8, high stringency; range in parentheses; closed box
T2 construct: expressed on HEK293 cells; also called human ADAM8 point mutant E444A
T2 sequence (ADAM8, looked up): T1 sequence (ADAM8, looked up) with E428A, A442K
Description: as §1, §2

Binding Reactivity (% WT) (K458A): 28 % WT | Binding Reactivity (% WT) (E444A): 17.6 % WT
B1: ADP2 Fab (Fab, V domains shown)
VH: EVKLVESGGGLVQPGGSLSLSCAASGFSFPDYYMSWVRQPPGKALEWLGFIRDSANGYTTEYIASVKGRFTFSRDNSQSILYLQMNALRAEDSATYYCARYSRYYGMDYWGQGTSVTVSS
VL: SIVMTQTPKILLVSAGDRVTITCKASQTVNYDVAWYQQKPGQSPKPVIYFASNRYTGVPDRFTGSGFGTDFTFTISTVQAEDLAVYFCQQDYSAPWTFGGGTKLEIK

— patent publication US20220227882A1 (TRUSTEES OF TUFTS COLLEGE, published 2022)
